US8673270B2, “RGD-containing peptidomimetics and uses thereof” (priority 2008, dated 2014)
Where two headings read alike, the source gives them in different places.

Experiments:
human αvβ3 integrin = biological target: T1, human αvβ3 integrin (Homo sapiens, UniProt P05106+P06756); experiment: Competitive binding experiments (determination of IC50) against c[RGDfK]-biotin, ELISA; details: competition with c[RGDfK]-biotin (10^−3M), coated integrin
T1 construct: purchased Chemicon
Experimental: (viii) Integrin binding test by ELISA. Nunc immuno-module strips (Nunclon, Cat#167008, Daniel Biotech, Israel) were coated for overnight with 2 μg/ml human integrin αvβ3 (Chemicon, Cat#CC1020, Biotest, Israel) dissolved in 0.06 M carbonate-bicarbonate buffer. Strips were blocked for 2 hrs at RT with 2% bovine serum albumin (BSA) (Sigma, Cat#A-9647, Israel) in phosphate buffered saline (PBS) (Biological Industries, Israel). A mixture of c[RGDfK]-biotin (10^−3M) and a test compound at different concentrations (10^−2, 10^−3, 10^−4 and 10^−5M) diluted in assay buffer (50 mM Tris HCl, pH=7.7, 0.5% BSA, 0.15 M NaCl, 0.01% Tween 20) was added to the coated strips and was incubated overnight at RT with shaking. After washing with PBS, anti-biotin antibodies labeled by alkaline phosphatase (1:200) (Miltenyi Biotec, Almog, Israel) were added and incubated for 1 hr at RT. The samples were incubated with p-nitrophenyl phosphate substrate (p-NPP, Calbiochem, Mercury, Israel) and read at 405 nm.
(xvi) Competitive binding experiments (determination of IC50). Immuno-module strips MAXISORP (Nunc, Danyel Biotech, Israel) were coated with 50 μl/well of 2 μg/ml human αvβ3 integrin (Chemicon, USA) overnight and blocked with 2% BSA (Sigma, Israel) for 2 hrs at RT. After wash with Tris buffered saline-Tween (TBST) buffer, a mixture of RGD peptide c[RGDfK]-biotin (10^−3M) and the tested RGD-conjugate at different concentrations (10^−2, 10^−3, 10^−4 and 10^−5 M) was added in triplicates and was incubated overnight and shaken at RT. After wash with PBS buffer, anti-biotin antibodies labeled by alkaline phosphatase (1:200) (Miltenyi Biotec, Germany) were added and incubated for 1 hr at RT. The samples were incubated with p-NPP substrate and read at 405 nm on Multiscan Spectrum (Labotal, Israel). The data were plotted to graph of dependence of binding percent out of concentration of RGD-conjugate and IC50 value was determined. […]

[1] = system: MDA-MB-231-RFP human breast cancer cells; experiment: In-vivo breast cancer model, orthotopic large necrotic tumor, IVIS imaging; design: species or system CD-1 nude mice; details: six days post injection, necrotic tumors 1-1.5 cm^3
Experimental: (xii) In-vivo breast cancer model. Female CD-1 nude mice (6-8 weeks old, 20-25 g, obtained from Harlan Biotech Israel, Rehovot, Israel) were implanted with MDA-MB-23′-RFP human breast cancer cells (4×10^6 cells/mouse). […] When tumors reached the size of 1-1.5 cm^3 for necrotic tumors, mice were anaesthetized by IP injection of 30 μl mixture of 85:15 ketamine:xylazine, and the test conjugate (15 mg/kg) was then injected to the tail vein.
In this study, the specific accumulation pattern of conjugates 1, 4 and 41 in orthotopic primary lesions of mammary carcinoma model, monitored by fluorescence signal generated by the tumor, and the fluorescence signal generated by these conjugates were examined. The localization of the conjugates in the tumors as time progress was also determined. Animals were treated as described in Materials and Methods, and fluorscence of both tumor cells and conjugates 1, 4 and 41 was monitored by IVIS® 100 imaging system from day 1 to 7.
FIGS. 1A, 1B and 1C show the accumulation patterns of conjugates 1, 4 and 41, respectively, in orthotopic human breast MDA-MB-231-RFP primary large tumor in the mammary pad of CD-1 nude female mice, using the Xenogen IVIS® System. Whole animal images° were recorded concomitantly using filter sets comprising excitation filter 500-550 nm and emission filter 575-650 nm. Background filter set for subtraction the tissue auto fluorescence: excitation filter 460-490 nm and emission filter 575-650 nm. Photosensitizer imaging main filter set: excitation filter 665-695 nm, emission filter 810-875 nm.

[2] = system: MLS human ovarian carcinoma cells; experiment: Integrin binding assay (in vitro), fluorescence imaging of cells incubated with conjugate; assay type: cell-based; details: 100 μM/well, 3 hrs at 37° C., IVIS imaging
Experimental: (xv) In-vitro binding assay. MLS human ovarian carcinoma cells were cultured as monolayers in minimum essential medium (MEM-alpha) containing 1 g/l D-glucose, pH 7.4, 10% fetal calf serum (FCS), glutamine (2 mM), penicillin (0.06 mg/ml) and streptomycin (0.1 mg/ml), and were grown at 37° C. in 5% CO2-humidified atmosphere. At 48 hrs before experiment, cells were seeded at 6 well plates (3×10^5 cells/well).
Expression of αvβ3 integrin on MLS cells. The cells were grown on cover slips. Following overnight serum starvation, fixation with 4% paraformaldehyde (Sigma, Israel) and permeabilization with 0.2% Triton X-100 (Sigma, Israel), cells were incubated in blocking solution (10% of horse serum) (Biological Industries, Israel) for 1 hr at RT. Cells were then incubated with mouse anti-human αvβ3 integrin antibodies (1:100) (Chemicon, Biotest, Israel) for 1 hr at RT. Secondary rabbit FITC-labeled anti-mouse IgG (1:200) (Sigma, Israel) were applied to cells for 1 hr at RT. Imaging was performed by fluorescent microscope (Nikon Optiphot2, Japan) equipped with a digital camera (DVC Company, Inc., Austin, Tex.).
In vitro binding assay. RGD-conjugates were initially dissolved in DMSO to yields 4×10^−3 M. The stock solutions were then diluted 1:40 in culture medium and added into MILS or HT29 cells (100 μM/well). Cells were incubated at 37° C. in 5% CO2-humidified atmosphere for 3 hrs. Cells were then washed 3 times with PBS and images were performed on a Xenogen IVIS® 100 Series Imaging System. The excitation and emission filters set in the IVIS for BTA-RGD were 710-760 nm and 810-860 nm, respectively, and for FITC-RGD were 445-490 nm and 515-575 nm, respectively.

[3] = system: LNCaP prostate cancer cells; experiment: In-vivo prostate cancer model, IVIS imaging; details: for Fluorescent level in excised organs: 14 hrs after injection, prostate and ovarian tumor-bearing mice; for Time of highest fluorescent level in tumor after injection: LNCaP prostate tumor
Toxicity study on rats = assay type: in vivo; details: 50 mg/kg into tail vein; for Necrosis or inflammation in liver or kidneys: after five days
Experimental: The various conjugates at dose of 50 mg/kg were injected into the tail vein during 1-2 min.

[4] = system: MLS human ovarian carcinoma cells; design: species or system CD-1 nude mice; details: mouse, in vivo
Excerpt: (ix) In-vivo ovarian carcinoma model. Female CD-1 nude mice (7-9 weeks old, 23-28 gr) were anaesthetized and subcutaneously (SC) implanted with MLS human ovarian carcinoma cells (obtained from Prof. M. Neeman, the Weizmann Institute of Science, Israel) suspension (2-3×10^6 cells/mouse). Tumors reached treatment size, diameter 6-8 mm, within 2-3 weeks.
Animals were anaesthetized by gas with mixture of 7:3 N2O:O2 containing 2% isofluorane (Medeva, Bethlehem, Pa.) or by intraperitoneal (IP) injection with mixture of 5 mg/kg ketamine (Rhone Merieux, Lyon, France) and 1 mg/kg pompun (Bayer, Leverkusen, Germany) (85:15, v:v).
(xiii) Fluorescent imaging protocol for BTA-RGD conjugates. Test compounds (8 mg/kg) were injected into the tail vein of IP anaesthetized tumor-bearing mice. Images of gas-anaesthetized animals were taken at 6, 8, 10, 12, 14 and 24 hrs (in some cases also at 48 and 72 hrs) after injection using IVIS® 100 Series Imaging System. The excitation and emission filters were set in the IVIS to 710-760 nm and to 810-860 nm, respectively. The emission filter with wavelength closest to the emission peak of the compound was selected among available filters in the standard configuration of IVIS.
(xiv) Fluorescent imaging protocol for FITC-RGD conjugates. Test compounds (8 mg/kg) were injected into the tail vein of IP anaesthetized tumor-bearing mice. Images of gas-anaesthetized animals were taken at 6 and 8 hrs after injection. Animals were sacrificed at 8 hrs, the organs (tumor, kidney, liver) were excited and images of the organs were taken using IVIS® 100 Series Imaging System. The excitation and emission filters were set in the IVIS to 445-490 nm and to 515-575 nm, respectively. The emission filter with wavelength closest to the emission peak of FITC was selected among available filters in the standard configuration of IVIS.

[5] = system: LNCaP prostate cancer cells; details: mouse, in vivo

With `CCC1c2cc3[nH]c(c(CC(=O)OC)c4nc(cc5[nH]c(cc(n2)C1C)c(C(C)=O)c5C)C(C)C4CCC(=O)N[C@H]1CNC(=O)[C@H](CC(=O)O)NC(=O)CNC(=O)[C@H](CCCNC(=N)N)NC(=O)NCCNC1=O)c(C(=O)NCCS(=O)(=O)O)c3C` (some centres unmarked) [Conjugate 1] the IC50 (human αvβ3 integrin) was 100 µM, the “Localization of conjugate within breast tumor” value (“Localization” for short) [1] was “Accumulate in the Necrotic Core of MDA Necrotic Tumors” and the “Integrin binding assay (in vitro)” value [2] was “Binding”. The “Fluorescent level in excised organs” value [3] was “high fluorescent level observed in the liver and kidney”, the “Time of highest fluorescent level in tumor after injection” value (shortened to “Time of highest fluorescent level”) [3] was 8 to 11 h and the “Survival, behavior and motility” value (Toxicity study on rats) was “Animals were survived and did not show any behavior or motility problems”. For the same compound, the “Necrosis or inflammation in liver or kidneys” value (shortened to “Necrosis or inflammation”) (Toxicity study on rats) was “no evidence of necrosis or inflammation was found in the liver or the kidneys”, the “Time of highest fluorescent level” value [4] was 8 to 11 h and the “Time the conjugate stayed in the tumor” value [4] was “up to 48 hrs”.

For `CCC1c2cc3[nH]c(c(CC(=O)OC)c4nc(cc5[nH]c(cc(n2)C1C)c(C(C)=O)c5C)C(C)C4CCC(=O)N[C@H]1CCCNC(=O)[C@H](CC(=O)O)NC(=O)CNC(=O)[C@H](CCCNC(=N)N)NC(=O)NCCNC1=O)c(C(=O)NCCS(=O)(=O)O)c3C` (some centres unmarked) [Conjugate 4], the IC50 (human αvβ3 integrin) was 300 µM, the “Localization” value [1] was “Accumulate in the Necrotic Core of MDA Necrotic Tumors” and the “Integrin binding assay (in vitro)” value [2] was “Binding”. The “Fluorescent level in excised organs” value [3] was “high fluorescent level observed in the liver and kidney”, the “Time of highest fluorescent level” value [3] was 8 to 14 h and the “Survival, behavior and motility” value (Toxicity study on rats) was “Animals were survived and did not show any behavior or motility problems”. The “Necrosis or inflammation” value (Toxicity study on rats) was “no evidence of necrosis or inflammation was found in the liver or the kidneys”, the “Time of highest fluorescent level” value [4] was 8 to 14 h and the “Time the conjugate stayed in the tumor” value [4] was “up to 48 hrs”.

In the case of `CCC1c2cc3[nH]c(c(CC(=O)OC)c4nc(cc5[nH]c(cc(n2)C1C)c(C(C)=O)c5C)C(C)C4CCC(=O)NCCCC[C@@H]1NC(=O)N[C@@H](Cc2ccccc2)C(=O)NC[C@@H](C(N)=O)NC(=O)[C@H](CC(=O)O)NC(=O)CNC(=O)[C@H](CCCNC(=N)N)NC1=O)c(C(=O)NCCS(=O)(=O)O)c3C` (some centres unmarked) [Conjugate 41], the IC50 (human αvβ3 integrin) is reported as 100 µM, the “Localization” value [1] is reported as “Accumulate in the Necrotic Core of MDA Necrotic Tumors” and the “Integrin binding assay (in vitro)” value [2] is reported as “In vitro: binding”. The “Time of highest fluorescent level” value [5] was 8 to 12 h, the “Survival, behavior and motility” value (Toxicity study on rats) was “Animals were survived and did not show any behavior or motility problems” and the “Necrosis or inflammation” value (Toxicity study on rats) was “no evidence of necrosis or inflammation was found in the liver or the kidneys”. For the same compound, the “Time of highest fluorescent level” value [4] was 8 to 12 h and the “Time the conjugate stayed in the tumor” value [4] was ≤ 24 h.
